Experimental findings from patent US20240059759A1 are described below.

Assay [1] concerns the target SARS-CoV-2 Spike RBD-His Tag, Sino Biological (SARS-CoV-2).
Assay [2] has the same target. The source holds these as a separate data set.
Assay [3] shares this target. This is another data set of the same source.
Assay [4] has the same target. The source holds these as a separate data set.
The target is the same in assay [5]. This is another data set of the same source.
The target is the same in assay [6]. The source holds these as a separate data set.

Numbering of substitutions follows the chain as printed. Where two headings read alike, the source gives them in different places.

B1: vhh_tstrep_sars2_pjl1_L_74 (VHH)
VHH: QVQLQESGGGLVQAGGSLRLSCAASGRTFSEYAMGWFRQAPGKEREFVATISWSGGATYQTDSVKGRFTISRDNAKNTVYLQMNSLKPDDTAVYYCAAAGLGTVVSEWDYDYDYWGQGTQVTVSS
For the molecule B1, the figures for the xmid (log10) in assay [1] and in assay [2] were -0.787 and -0.413, respectively.

B2: vhh_tstrep_sars2_pjl1_L_145 (VHH)
VHH: B1 VHH with W53L, Q60H
As for B2, the xmid (log10) in assay [3] came to 0.562; in assay [4], 0.668.

B3: vhh_tstrep_sars2_pjl1_L_79 (VHH)
VHH: B1 VHH with Q60T
Turning to B3, the values for the xmid (log10) in assay [1] and in assay [2] were -1.02 and -1.01, respectively.

B4: vhh_tstrep_sars2_pjl1_L_99 (VHH)
VHH: B1 VHH with Q60Y, D109A, Y114A
In the case of B4, the results for the xmid (log10) in assay [5] and in assay [6] were -0.202 and -0.384, respectively.
